Measured values from PMC7895464 (Journal of molecular biology, 2020).
Where two headings read alike, the source gives them in different places.

How the values were obtained:
[1] = target: T1, ClpA (E. coli, UniProt P0ABH9 1-758)
T1 sequence (looked up): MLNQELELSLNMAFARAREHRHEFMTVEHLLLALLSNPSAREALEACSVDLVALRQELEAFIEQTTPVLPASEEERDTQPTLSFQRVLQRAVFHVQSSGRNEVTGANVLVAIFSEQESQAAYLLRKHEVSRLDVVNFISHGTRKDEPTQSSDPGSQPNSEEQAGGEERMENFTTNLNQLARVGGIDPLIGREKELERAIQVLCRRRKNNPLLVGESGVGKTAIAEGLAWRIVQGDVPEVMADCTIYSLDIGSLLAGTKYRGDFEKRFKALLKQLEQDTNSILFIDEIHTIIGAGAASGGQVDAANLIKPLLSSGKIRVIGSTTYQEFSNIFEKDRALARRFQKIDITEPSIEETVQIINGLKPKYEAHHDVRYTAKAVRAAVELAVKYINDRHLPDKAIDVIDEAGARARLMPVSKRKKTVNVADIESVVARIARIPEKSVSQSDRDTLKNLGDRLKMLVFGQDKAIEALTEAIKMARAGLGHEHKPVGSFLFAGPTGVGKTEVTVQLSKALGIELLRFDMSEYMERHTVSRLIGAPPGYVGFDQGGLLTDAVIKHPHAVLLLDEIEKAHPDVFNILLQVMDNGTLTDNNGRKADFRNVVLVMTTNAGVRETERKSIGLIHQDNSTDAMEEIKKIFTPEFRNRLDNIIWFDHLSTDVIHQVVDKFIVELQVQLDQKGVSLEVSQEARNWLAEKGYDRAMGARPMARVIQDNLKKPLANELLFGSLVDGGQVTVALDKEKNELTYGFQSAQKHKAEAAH

[2] = target: ClpS*^fl (fluorescein-labelled variant of ClpS containing one cysteine) (E. coli) (UniProt P0A8Q6); test: fluorescence polarisation
[3] = target: T1, ClpA; test: fluorescence polarisation
[4] = target: T2, ClpA-ClpS complex (ClpAS; printed as ClpAPS in the text) (E. coli, UniProt P0ABH9 1-758; P0A8Q6 2-106); test: fluorescence polarisation
T2 sequence 1: T1 sequence (looked up)
T2 sequence 2: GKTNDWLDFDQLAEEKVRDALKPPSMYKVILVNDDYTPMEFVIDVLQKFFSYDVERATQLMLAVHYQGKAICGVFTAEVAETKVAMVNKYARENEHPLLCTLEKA

[5] = target: T1, ClpA; test: fluorescence polarisation; remark: listed apart in the source

B1: ClpS^ΔN17 (domain or fragment, E. coli, UniProt P0A8Q6 18-106, looked up)
chain: VRDALKPPSMYKVILVNDDYTPMEFVIDVLQKFFSYDVERATQLMLAVHYQGKAICGVFTAEVAETKVAMVNKYARENEHPLLCTLEKA
For B1, the Kd [1] was about 160 nM.

B2: ClpA (enzyme)
chain: T1 sequence (looked up)
B2 was tested, and the Kd [2] was 160 nM.

B3: λ*^fl-ssrA (fluorescein-labelled ssrA-tagged DNA-binding domain of λ repressor, λ(1-93)^A21C-ssrA) (domain or fragment, bacteriophage λ | E. coli)
chain: MSTKKKPLTQEQLEDARRLKCIYEKKKNELGLSQESVADKMGMGQSGVGALFNGINALNAYNAALLAKILKVSVEEFSPSIAREIYEMYEAVSAANDENYALAA
modifications: fluorescein (fluorescein-5-maleimide) on the single cysteine
B3 showed a Kd [3] of 740 nM and a Kd [4] of about 8000 nM.

B4: ClpS (natural protein, E. coli)
chain: T2 sequence 2
B4: binds [5].
